Measured values published in article PMC4474532 (The EMBO Journal, 2015).

B1: human PERK luminal domain (residues 105–403) (domain or fragment, UniProt Q9NZJ5 105-403, looked up)
chain: LVIISTLDGRIAALDPENHGKKQWDLDVGSGSLVSSSLSKPEVFGNKMIIPSLDGALFQWDQDRESMETVPFTVESLLESSYKFGDDVVLVGGKSLTTYGLSAYSGKVRYICSALGCRQWDSDEMEQEEDILLLQRTQKTVRAVGPRSGNEKWNFSVGHFELRYIPDMETRAGFIESTFKPNENTEESKIISDVEEQEAAIMDIVIKVSVADWKVMAFSKKGGHLEWEYQFCTPIASAWLLKDGKVIPISLFDDTSYTSNDDVLEDEEDIVEAARGATENSVYLGMYRGQLYLQSSVRI
B2: mouse PERK luminal domain (residues 101–399) (domain or fragment, UniProt Q9Z2B5 101-399, looked up)
chain: LVIISTLDGRIAALDAENDGKKQWDLDVGSGSLVSSSLSKPEVFGNKMIIPSLDGDLFQWDRDRESMEAVPFTVESLLESSYKFGDDVVLVGGKSLITYGLSAYSGKLRYICSALGCRRWDSDEMEEEEDILLLQRTQKTVRAVGPRSGSEKWNFSVGHFELRYIPDMETRAGFIESTFKPGGNKEDSKIISDVEEQEATMLDTVIKVSVADWKVMAFSRKGGRLEWEYQFCTPIASAWLVRDGKVIPISLFDDTSYTASEEALGDEEDIVEAARGATENSVYLGMYRGQLYLQSSVRV

Tests used:
[1] = target: the molecule itself; experiment: crystal structure; human PERK LD, untagged, 5 mg/ml, hanging drops, 0.1 M Tris pH 8.5, 0.2 M MgCl2, 25% w/v PEG3350, 7% glycerol, 18°C; tungstate MAD; 3.1 Å
[2] = target: the molecule itself; experiment: SAXS; H. sapiens PERK LD 1.25 mg/ml (results: 1–5 mg/ml); 50 mM HEPES pH 7.8, 200 mM NaCl, 2 mM TCEP; profiles computed from the crystal structures fitted with OLIGOMER
[3] = target: the molecule itself; experiment: AUC; sedimentation velocity, 20°C, PERK LD proteins at 30 μM; 50 mM HEPES pH 7.8, 200 mM NaCl, 2 mM TCEP; c(s) by Sedfit; dimer to tetramer equilibrium
[4] = target: the molecule itself; experiment: crystal structure; mouse PERK LD, untagged, 20 mg/ml, hanging drops, 0.1 M MES/imidazole pH 6.5, NPS mix, 12.5% PEG1000, 12.5% PEG3350, 20% MPD, 18°C; 3.3 Å

Protein | stoichiometry N [1] | dimer to tetramer ratio [2] | stoichiometry N [2] | dimer to tetramer ratio [3] | stoichiometry N [3] | stoichiometry N [4]
B1 | 4 | 1.5 dimer:tetramer | 2 |  |  | 
B2 |  |  |  | ~1.5 dimer:tetramer | 4 | 2
